Experimental data from US8440629B2, “Cyclic receptor-associated protein (RAP) peptides” (Raptor Pharmaceuticals Inc., priority 2007, dated 2013).
Where a chain is given by its changes, count along the chain named. In names and notes the source's numbering stands.

B1: RAP d3: third domain of human RAP, amino acids 201-319 of mature RAP, bacterially expressed with hexahistidine and S-peptide tags (SEQ ID NO: 92) (protein, listed as Homo sapiens)
chain: LDRLRRVSHQGYSTEAEFEEPRVIDLWDLEQSANLTDKELEAFREELKHFEAKIEKHNHYQKQLEIAHEKLRHAESVGDGERVSRSREKHALLEGRTKELGYTVKKHLQDLSGRISRAR
modifications: hexahistidine and S-peptide tags
B2: MegaRAP1 d3: d3 of RAP variant selected on LRP2 CR89: S213T, E217K, H249Y, E251K, K256A, K270E (SEQ ID NO: 93) (protein, listed as Homo sapiens)
chain: B1 chain with E51K, K56A, K70D

Tests used:
CR proteins = assay: Solid phase binding assay in presence of 10 mM EGTA; set-up: species or system human
Protocol: (§1) Purified, refolded CR protein (1 μg) was bound to Nunc Maxisorp™ 96-well plates in TBS pH 8 supplemented with 5 mM CaCl2 (TBSC) overnight at 4° C. Wells were washed with TBSC and then blocked with TBSC containing 2% bovine serum albumin (BSA). RAP ligands were then incubated with the immobilized receptor at a range of concentrations for 2 hours in the above blocking buffer supplemented with 0.05% Tween-20 at room temperature. Control wells contained no added ligand. As an additional control, to determine whether the absence of calcium affected binding, 10 mM EGTA was included in the incubation medium for some samples. Wells were washed with TBSTC and bound ligands detected with polyclonal anti-RAP (BP41/42, 1:1,000, BioMarin). Excess primary antibody was removed and wells washed before incubation with the secondary antibody, HRP-conjugated goat anti rabbit IgG (Bio-Rad). After washing, TMB substrate solutions (Bio-Rad) were added to detect HRP. Color development was stopped with 1N HCl. Absorption at 450 nm was measured with a microplate spectrophotometer (Molecular Devices). Data were plotted and Kd values derived by non-linear regression with the assumption of single-site binding (GraphPad Prism).
Next, the binding of RAP d3 and MegaRAP1 d3 proteins to LRP1 CR3-5 and LRP2 CR89 was assessed. […]

MAT CR34 = molecular target: T1, MAT CR34 (Homo sapiens, UniProt Q9Y5Y6); assay: Solid phase binding assay; conditions: separate set of experiments
T1 construct: MAT CR34 (ST14 CR34), amino acids 525-602; made in house; host or cells: E. coli BL21(DE3) CodonPlus-RIPL, pET30(+)a
T1 sequence (Q9Y5Y6 525-602): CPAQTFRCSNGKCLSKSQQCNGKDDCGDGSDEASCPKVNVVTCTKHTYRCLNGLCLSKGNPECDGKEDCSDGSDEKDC

LRP6 CR12 = molecular target: T2, LRP6 CR12 (Homo sapiens, UniProt O75581); assay: Solid phase binding assay; conditions: highest ligand concentrations tested
T2 construct: LRP6 CR12 and LRP6 CR23, amino acids 1247-1322 and 1323-1363; made in house; host or cells: E. coli BL21(DE3) CodonPlus-RIPL, pET30(+)a
T2 sequence (O75581 1247-1322): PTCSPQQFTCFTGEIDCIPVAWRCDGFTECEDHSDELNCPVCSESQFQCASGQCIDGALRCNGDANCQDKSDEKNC

LRP6 CR1-3 = molecular target: T3, LRP6 CR1-3 (Homo sapiens, UniProt O75581); assay: Solid phase binding assay; conditions: highest ligand concentrations tested
T3 construct: made in house; host or cells: E. coli BL21(DE3) CodonPlus-RIPL, pET30(+)a
T3 sequence (O75581 1247-1363): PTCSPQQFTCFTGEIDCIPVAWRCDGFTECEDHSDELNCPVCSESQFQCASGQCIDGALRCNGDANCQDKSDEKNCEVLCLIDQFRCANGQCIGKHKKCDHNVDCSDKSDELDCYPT

LRP2 CR89 = molecular target: T4, LRP2 CR89 (Homo sapiens, UniProt P98164); assay: Solid phase binding assay
T4 construct: two CR pairs from LRP2 (CR89, CR3435); made in house; host or cells: E. coli BL21(DE3) CodonPlus-RIPL, pET30(+)a
T4 sequence (P98164 1022-1105 limits assumed): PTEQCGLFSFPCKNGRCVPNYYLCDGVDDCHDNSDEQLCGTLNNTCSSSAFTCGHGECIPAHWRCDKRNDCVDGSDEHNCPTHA
Protocol: All expression constructs were sequenced to verify insert sequences and the junctions with the expression vector. Each plasmid was then used to transform BL21(DE3) CodonPlus-RIPL™ cells (Stratagene). Expression of the CR proteins was induced in logarithmic growth-phase cells grown in LB supplemented with 34 μg/mL chloramphenicol, 12.5 μg/mL tetracycline and 15 μg/mL kanamycin by addition of 2 mM IPTG, followed by reduction in incubator temperature to 32° C. and incubation for 4 hours with agitation at […]. Cells were pelleted and resuspended, at 3.5% of the initial culture volume in 10 mM Tris-HCl pH 8, 100 mM NaH2PO4, 8M Urea. Resuspended cells were then frozen in liquid nitrogen, rapidly thawed to 37° C. and sonicated for 10 seconds at an amplitude setting of 60 using a Cole-Parmer CP-130 ultrasonic processor connected to a 3 mm probe. This procedure was repeated three times to effect complete lysis of the cells. Lysates were clarified by spinning twice at 10,000×g in a Sorvall RC-5 centrifuge for 20 minutes at 15° C. Ni-NTA columns (Qiagen Superflow™, 1.5 mL packed bed) were used to purify the CR proteins. Briefly, the resin was equilibrated with two column volumes of lysis buffer. The clarified lysate was then supplemented to 20 mM with imidazole and incubated with the equilibrated Ni-NTA resin overnight at 4° C. The flow-through was discarded. Columns were washed once with one column volume of lysis buffer and then three times with one column volume of TBS pH 8 supplemented with 20 mM imidazole. CR-loaded beads were then removed from the column and CR proteins eluted by incubating at room temperature for 30 minutes with one column volume of the same buffer containing 200 mM imidazole. This step was repeated once and the eluates pooled. Eluted CR protein solutions were then supplemented to 2 M urea, 10 mM CaCl2 and 5 mM DTT. Purified, denatured CR protein solutions were transferred to 3,500 MWCO Slide-A-Lyzer™ (Pierce) cassettes and sequentially dialyzed against a 200-fold excess of 50 mM Tris-HCl pH 8.5, 10 mM CaCl2, 1 mM reduced glutathione, 0.5 mM oxidized glutathione at room temperature overnight and then against TBS supplemented with 5 mM CaCl2 at 4° C. overnight. Protein concentrations were determined by Bradford assay and purity confirmed by SDS-PAGE with Coomassie Brilliant Blue staining.
as §1

| Molecule | effect of 10 mM EGTA on binding to CR proteins (CR proteins) | binding (in words) (MAT CR34) | binding relative to that for LRP1 CR3-5 (LRP6 CR12) | binding relative to that for LRP1 CR3-5 (LRP6 CR1-3) | binding to LRP2 CR89 (in words) (LRP2 CR89; solid-phase assay) | binding at 80 nM (in words) (LRP2 CR89; 80 nM ligand, FIG. 7) | Kd (LRP2 CR89; solid-phase assay, LRP2 CR89, read-out: apparent dissociation constant (Kd)) [nM] |
| --- | --- | --- | --- | --- | --- | --- | --- |
| B1 | prevented binding | undetectable | less than 5% | less than 5% | no significant affinity |  |  |
| B2 | prevented binding |  |  |  |  | bound only to LRP2 CR89 | 38 |
